Source: paper PMC2991499

T1: RB69 DNA polymerase gp43 PolY567A Exo+ (bacteriophage RB69, UniProt Q38087 1-903, Y567A)
T1 sequence: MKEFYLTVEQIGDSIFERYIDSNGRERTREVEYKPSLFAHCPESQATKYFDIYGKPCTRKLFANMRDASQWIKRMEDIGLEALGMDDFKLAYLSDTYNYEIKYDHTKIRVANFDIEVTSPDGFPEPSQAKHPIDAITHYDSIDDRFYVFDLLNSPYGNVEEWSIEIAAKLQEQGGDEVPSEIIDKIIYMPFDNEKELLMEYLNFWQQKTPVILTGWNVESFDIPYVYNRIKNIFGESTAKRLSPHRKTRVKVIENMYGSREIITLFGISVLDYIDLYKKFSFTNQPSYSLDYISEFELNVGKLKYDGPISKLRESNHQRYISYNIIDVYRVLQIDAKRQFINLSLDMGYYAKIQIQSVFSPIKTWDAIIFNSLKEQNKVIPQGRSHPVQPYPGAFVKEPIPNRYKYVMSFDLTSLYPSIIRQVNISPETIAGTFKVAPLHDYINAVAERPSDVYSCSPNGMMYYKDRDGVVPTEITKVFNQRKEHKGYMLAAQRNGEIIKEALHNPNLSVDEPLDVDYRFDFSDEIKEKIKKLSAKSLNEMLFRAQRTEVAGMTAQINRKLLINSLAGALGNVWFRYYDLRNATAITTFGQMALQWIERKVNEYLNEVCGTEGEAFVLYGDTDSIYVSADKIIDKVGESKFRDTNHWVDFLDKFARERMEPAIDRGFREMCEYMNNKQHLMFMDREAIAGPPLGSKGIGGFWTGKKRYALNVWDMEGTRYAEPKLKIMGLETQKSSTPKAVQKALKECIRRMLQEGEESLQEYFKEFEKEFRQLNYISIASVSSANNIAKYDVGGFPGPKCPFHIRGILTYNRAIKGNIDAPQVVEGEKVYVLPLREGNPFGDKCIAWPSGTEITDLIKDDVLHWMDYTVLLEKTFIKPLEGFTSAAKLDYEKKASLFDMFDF

T2: RB69 DNA polymerase gp43 PolS565G/Y567A Exo+ (bacteriophage RB69, UniProt Q38087 1-903, S565G;Y567A)
T2 sequence: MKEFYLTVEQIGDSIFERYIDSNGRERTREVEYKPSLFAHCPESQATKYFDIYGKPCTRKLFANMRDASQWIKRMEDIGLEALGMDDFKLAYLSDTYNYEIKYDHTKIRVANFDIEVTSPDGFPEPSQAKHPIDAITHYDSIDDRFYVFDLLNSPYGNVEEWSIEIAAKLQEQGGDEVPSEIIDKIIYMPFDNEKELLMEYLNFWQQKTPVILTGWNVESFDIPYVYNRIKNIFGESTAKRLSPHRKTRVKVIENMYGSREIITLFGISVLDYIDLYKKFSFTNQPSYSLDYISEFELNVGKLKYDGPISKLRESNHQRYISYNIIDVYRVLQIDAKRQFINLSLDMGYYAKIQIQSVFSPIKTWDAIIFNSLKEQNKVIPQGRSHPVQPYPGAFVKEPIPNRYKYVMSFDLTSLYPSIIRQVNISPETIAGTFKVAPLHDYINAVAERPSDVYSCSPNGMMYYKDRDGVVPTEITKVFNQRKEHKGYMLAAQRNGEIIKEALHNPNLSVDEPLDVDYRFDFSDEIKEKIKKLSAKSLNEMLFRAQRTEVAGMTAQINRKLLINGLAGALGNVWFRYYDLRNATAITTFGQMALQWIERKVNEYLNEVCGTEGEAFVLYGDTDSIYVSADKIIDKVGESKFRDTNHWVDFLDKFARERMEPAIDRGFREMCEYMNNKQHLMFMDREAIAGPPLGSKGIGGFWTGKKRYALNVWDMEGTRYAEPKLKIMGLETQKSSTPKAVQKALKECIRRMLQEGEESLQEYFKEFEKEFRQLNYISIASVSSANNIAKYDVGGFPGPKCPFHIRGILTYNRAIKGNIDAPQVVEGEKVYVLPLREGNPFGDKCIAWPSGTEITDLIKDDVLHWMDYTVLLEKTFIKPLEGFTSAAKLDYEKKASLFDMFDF

T3: RB69 DNA polymerase gp43 PolS565G Exo+ (bacteriophage RB69, UniProt Q38087 1-903, S565G)
T3 sequence: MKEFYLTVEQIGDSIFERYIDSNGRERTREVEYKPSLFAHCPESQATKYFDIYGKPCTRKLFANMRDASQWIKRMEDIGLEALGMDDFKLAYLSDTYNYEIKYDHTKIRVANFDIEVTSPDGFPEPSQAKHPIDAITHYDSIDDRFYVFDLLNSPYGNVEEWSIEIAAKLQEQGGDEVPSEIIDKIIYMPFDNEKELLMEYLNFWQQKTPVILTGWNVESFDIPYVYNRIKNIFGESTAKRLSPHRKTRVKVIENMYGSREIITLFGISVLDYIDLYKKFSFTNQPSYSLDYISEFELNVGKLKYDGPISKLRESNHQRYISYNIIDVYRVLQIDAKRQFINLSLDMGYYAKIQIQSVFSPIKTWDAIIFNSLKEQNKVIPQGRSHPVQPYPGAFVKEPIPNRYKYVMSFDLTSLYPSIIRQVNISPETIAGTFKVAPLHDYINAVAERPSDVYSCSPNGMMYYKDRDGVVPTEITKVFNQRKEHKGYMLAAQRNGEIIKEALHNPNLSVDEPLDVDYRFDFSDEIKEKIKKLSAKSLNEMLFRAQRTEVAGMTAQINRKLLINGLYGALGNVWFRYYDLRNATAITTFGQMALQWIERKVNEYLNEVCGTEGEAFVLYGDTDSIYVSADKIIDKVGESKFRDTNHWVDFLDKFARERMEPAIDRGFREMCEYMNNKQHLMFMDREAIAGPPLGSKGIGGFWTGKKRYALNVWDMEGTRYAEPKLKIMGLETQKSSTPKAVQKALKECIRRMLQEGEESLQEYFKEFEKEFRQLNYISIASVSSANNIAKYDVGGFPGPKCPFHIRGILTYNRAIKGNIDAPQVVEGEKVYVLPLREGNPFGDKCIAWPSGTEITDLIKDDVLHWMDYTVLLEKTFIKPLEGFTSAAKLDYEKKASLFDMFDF

T4: RB69 DNA polymerase gp43 Pol+ Exo+ (wild type) (bacteriophage RB69, UniProt Q38087 1-903)
T4 sequence: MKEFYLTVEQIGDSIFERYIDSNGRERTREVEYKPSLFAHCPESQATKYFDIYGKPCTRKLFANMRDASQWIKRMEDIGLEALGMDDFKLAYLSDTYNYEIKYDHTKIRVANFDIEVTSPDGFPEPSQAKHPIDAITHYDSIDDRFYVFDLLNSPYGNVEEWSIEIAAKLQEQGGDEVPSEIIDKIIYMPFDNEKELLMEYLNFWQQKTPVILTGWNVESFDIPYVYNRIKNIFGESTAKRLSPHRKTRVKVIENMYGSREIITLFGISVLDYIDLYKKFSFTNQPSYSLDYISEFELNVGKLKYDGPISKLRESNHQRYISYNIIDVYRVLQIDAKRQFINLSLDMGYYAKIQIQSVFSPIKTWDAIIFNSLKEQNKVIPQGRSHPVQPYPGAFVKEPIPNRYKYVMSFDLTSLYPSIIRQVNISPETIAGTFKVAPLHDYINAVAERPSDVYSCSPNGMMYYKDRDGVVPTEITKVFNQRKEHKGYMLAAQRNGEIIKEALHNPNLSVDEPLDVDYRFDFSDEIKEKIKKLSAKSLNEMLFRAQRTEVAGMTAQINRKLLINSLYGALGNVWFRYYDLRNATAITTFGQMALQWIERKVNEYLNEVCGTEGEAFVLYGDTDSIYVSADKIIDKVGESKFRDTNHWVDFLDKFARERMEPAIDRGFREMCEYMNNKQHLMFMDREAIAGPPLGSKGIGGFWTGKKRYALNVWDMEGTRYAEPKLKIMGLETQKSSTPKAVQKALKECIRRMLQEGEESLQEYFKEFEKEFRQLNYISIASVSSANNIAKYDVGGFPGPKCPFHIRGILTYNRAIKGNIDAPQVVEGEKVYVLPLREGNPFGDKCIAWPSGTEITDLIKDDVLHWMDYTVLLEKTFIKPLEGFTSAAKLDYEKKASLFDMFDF


Assays:
Test in all cases: EMSA
[1] = target: T1, RB69 DNA polymerase gp43 PolY567A Exo+
[2] = target: T2, RB69 DNA polymerase gp43 PolS565G/Y567A …
[3] = target: T3, RB69 DNA polymerase gp43 PolS565G Exo+
[4] = target: T4, RB69 DNA polymerase gp43 Pol+ Exo+ …

| Binder | Kd [1] [nM] | Kd [2] [nM] | Kd [3] [nM] | Kd [4] [nM] |
| --- | --- | --- | --- | --- |
| normal dsDNA primer/template 20/35-mer (dsDNA) DNA 1: TTTGATGTATTATCAATTGT DNA 2: TGCCTTCGTAATCTTACAATTGATAATACATCAAA | 13.2 ± 1.4 | 29.9 ± 1.9 | 38.9 ± 3.4 | 6.9 ± 2.1 |
| mismatched dsDNA primer/template 20/30-mer, terminal T·G (dsDNA) DNA 1: ATGTGCTGCAAGGCGATTAG DNA 2: GTTACCCAACTTAATCGCCTTGCAGCACAT | 25.7 ± 3.2 | 79.9 ± 4.8 | 132 ± 5.7 | 38.2 ± 4.3 |
